The target in this experiment is recombinant soluble canine IL-10 receptor alpha chain (R1), extra-cytoplasmic domain (canine). Description: SPR; rcasIL-10R1 covalently immobilised (EDC/NHS) on a CM5 chip to 1000 RU, Biacore T100; cytokines in PBS with 0.05% Tween 20 applied for 2 min 30 s; each sample evaluated twice, mean ± SD of RU.

Consider “recombinant canine IL-10 (from UniProt P48411 20-181) (ligand)”, for which the RU at 31.2 ng/mL was 211 RU, the RU at 125 ng/mL (plateau) came out at 1720 RU and the binding equilibrium constant (EC80) stood at 51.4 nM.

(Values after PMC7815104.)
